B1: hTREK-1 / hK2P2.1: N110Q (protein)
parent chain: MLPSASRERPGYRAGVAAPDLLDPKSAAQNSKPRLSFSTKPTVLASRVESDTTINVMKWKTVSTIFLVVVLYLIIGATVFKALEQPHEISQRTTIVIQKQTFISQHSCVNSTELDELIQQIVAAINAGIIPLGNTSNQISHWDLGSSFFFAGTVITTIGFGNISPRTEGGKIFCIIYALLGIPLFGFLLAGVGDQLGTIFGKGIAKVEDTFIKWNVSQTKIRIISTIIFILFGCVLFVALPAIIFKHIEGWSALDAIYFVVITLTTIGFGDYVAGGSDIEYLDFYKPVVWFWILVGLAYFAAVLSMIGDWLRVISKKTKEEVGEFRAHAAEWTANVTAEFKETRRRLSVEIYDKFQRATSIKRKLSAELAGNHNQELTPCRRTLSVNHLTSERDVLPPLLKTESIYLNGLTPHCAGEEIAVIENIK
B2: hTREK-1 / hK2P2.1: N134Q (protein)
parent chain: B1 parent chain
B3: hTREK-1 / hK2P2.1: tunicamycin (protein)
parent chain: B1 parent chain
B4: hTREK-1 / hK2P2.1: tunicamycin coinjection (2 or 3 ng per oocyte) (protein)
parent chain: B1 parent chain
B5: hTREK-1 / hK2P2.1: tunicamycin (incubation or injection) (protein)
parent chain: B1 parent chain
B6: hTREK-1 / hK2P2.1: N110Q/N134Q (protein)
parent chain: B1 parent chain
B7: hTREK-1 / hK2P2.1: tunicamycin incubation (0.75 or 1.5 mg/L) (protein)
parent chain: B1 parent chain

How the values were obtained:
[1] = TEVC, Xenopus oocytes; settings: glycan lost
[2] = TEVC, oocytes, 24 h versus 48 h; settings: glycan lost; control: wild type
[3] = TEVC, Xenopus oocytes, +20 mV, 48 h; settings: glycan lost; control: wild type
[4] = TEVC pulse step protocol, oocytes, 48 h; settings: glycan lost; control: wild type
[5] = eGFP fluorescence microscopy with WGA membrane stain, HeLa; settings: glycan lost; control: hTREK-1-WT-eGFP
[6] = surface biotinylation, streptavidin pull-down, immunoblot, HEK-293T; settings: glycan lost; control: wild type
[7] = TEVC pulse step protocol, oocytes; settings: glycan lost; control: DMSO vehicle
[8] = TEVC, Xenopus oocytes, +20 mV, 24/48 h; settings: glycan lost; control: DMSO vehicle

| Protein | other: resting membrane potential ([1]; control: wild type) | other: current at 24 h relative to 48 h (onset of current), other: 24 h current as % of 48 h current [2] | other: channel current, percent_of_wt [3] | other: current-voltage relationship [4] | localisation_or_trafficking [5] | localisation_or_trafficking, other: reduction of surface fraction relative to WT [6] | further results |
| --- | --- | --- | --- | --- | --- | --- | --- |
| B1 | changes | decreases, 54 vs 57 % to 66% | decreases | no change | no change | decreases, reduction of surface protein expression (about 16 % for both, N110Q and N134Q) |  |
| B2 | changes | decreases, 41 vs 57 % to 66% | decreases | no change | no change | decreases |  |
| B3 |  |  |  |  |  |  | other: current-voltage relationship [7]: no change |
| B4 |  |  |  |  |  |  | other: channel current [8]: decreases |
| B5 |  |  |  |  |  |  | other: resting membrane potential ([1]; control: DMSO vehicle): changes |
| B6 | changes | decreases, 31 vs 57 % to 66% | decreases, a current reduction of 65.5 ± 0.7 % in nonglycosylated subunits | no change | no change | decreases, accompanied by a reduction in surface expression of 70.2% |  |
| B7 |  |  |  |  |  |  | other: channel current [8]: decreases, tunicamycin treatment (incubation with 1.5 mg/L) resulted in a current reduction of 79.4% |
